Data reported in patent publication KR20130140557A (dated 2013).

How the values were obtained:
[1] = target: a-Myc; assay: mono phage ELISA, a-Myc coated 100 ng/well, anti-M13-HRP
[2] = target: Fc; assay: mono phage ELISA, Fc coated 100 ng/well, anti-M13-HRP
[3] = target: T1, IL-6R-Fc 항원 (IL-6R full domain 단백질) (human, UniProt P08887 20-365); assay: mono phage ELISA, antigen coated 100 ng/well, anti-M13-HRP
T1 construct: domain: IL-6R full domain; Expressed transiently in HEK293E and purified from the supernatant; also called IL-6R 항원; not shown: Fc part from expression vector pYK 604
T1 sequence (looked up): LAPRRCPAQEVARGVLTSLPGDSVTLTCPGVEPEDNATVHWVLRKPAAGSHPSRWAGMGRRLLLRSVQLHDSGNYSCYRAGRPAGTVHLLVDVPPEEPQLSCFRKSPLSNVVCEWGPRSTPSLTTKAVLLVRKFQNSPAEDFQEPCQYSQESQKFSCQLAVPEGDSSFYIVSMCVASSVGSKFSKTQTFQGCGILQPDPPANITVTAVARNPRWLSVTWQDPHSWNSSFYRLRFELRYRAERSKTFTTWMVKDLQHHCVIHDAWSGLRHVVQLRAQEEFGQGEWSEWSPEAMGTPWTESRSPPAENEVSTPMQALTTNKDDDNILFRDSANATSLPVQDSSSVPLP

[4] = target: T1, IL-6R-Fc 항원 (IL-6R full domain 단백질); assay: mono phage ELISA, ratio of OD on IL-6R full to OD on a-myc
[5] = target: T1, IL-6R-Fc 항원 (IL-6R full domain 단백질); assay: ELISA (summary table; same value as the 3rd table)
[6] = target: T1, IL-6R-Fc 항원 (IL-6R full domain 단백질); assay: ELISA titration on coated IL-6R, anti-Fab-HRP
[7] = target: T1, IL-6R-Fc 항원 (IL-6R full domain 단백질); assay: ELISA, coated IL-6R 100 ng/well, anti-Fab-HRP

B1: 모노 파아지 클론 A7 (scFv on phage) (scFv)
chain: DVHSQMQLVESGGGLVQPGTSLRLSCAASGFKFEDYAMHWVRQAPGKGLEWVSGVSWNSGTIAYVDSVKGRFTISRDNAKNSLYLQMNSLRAEDTAVYYCARDFTYFYESSGYYAFDLWGQGTMVTVSSDVHSQLVLTQPPSVSGAPGQRVTISCTGTNSNIGAGYDVHWYQQVPGTTPKLLIYGNTNRPSGVPDRFSGSKSGTSASLAITGLQAEDGGDYYCQSFDSSLTGSVFGTGTKVTVL
OD 490 nm (a-myc) [1]: 0.0797 OD490
OD 490 nm (Fc) [2]: 0.0421 OD490
OD 490 nm (IL-6R full) [3]: 2.48 OD490
Ratio (IL-6R full / a-myc) [4]: 31.1

B2: 모노 파아지 클론 D2 (scFv on phage) (scFv)
chain: DVHSQVQLVESGAEVKKPGSSVKVSCKGSGDTFPNYAINWVRQAPGQGPEWMGRIIPMLGTSDYAEKFQGRVTITADKSTNTAYMGLNSLRSEDTAVYYCVKGPRYYGTDSYYLEKWGQGTMVTVSSDVHSQLVLTQPPSVSGAPGQTVTISCTGPTIGAGYDVHWYQQLPGAAPKLLIYGNLNRPSGVPDRFSGSKSGTSASLAITDLQAEDEADYYCHTYDSSLSGSWVFGGGTKLTVL
OD 490 nm (a-myc) [1]: 0.303 OD490
OD 490 nm (Fc) [2]: 0.0415 OD490
OD 490 nm (IL-6R full) [3]: 2.34 OD490
Ratio (IL-6R full / a-myc) [4]: 7.71

B3: 항 IL-6R 단클론 항체 B10 (IgG) (antibody, V domains shown)
VH: QVQLVESGGGLVQPGGSLRLSCAASGFIFDDYAMFWVRQVPGKGLEWVAGINWNGNGIGYGDSVRGRFIISRDNARNSLDLQMNSLRAEDTAVYYCARPSLYGGNSEFDLWGQGTLVTVSS
VL: SQLVLTQPPSVSGAPGQTVTISCTGPTIGAGYDVHWYQQLPGAAPKLLIYGNLNRPSGVPDRFSGSKSGTSASLAITDLQAEDEADYYCHTYDSSLSGSWVFGGGTKLTVL
notes: Phage clone converted to whole IgG
Kd [5]: 4.3 nM
Kd [6]: 4.3 nM
OD 490 nm at 0.02441 nM antibody [7]: 0.468 OD490
OD 490 nm at 0.04883 nM antibody [7]: 0.451 OD490
OD 490 nm at 0.09766 nM antibody [7]: 0.462 OD490
OD 490 nm at 0.19531 nM antibody [7]: 0.429 OD490
OD 490 nm at 0.39063 nM antibody [7]: 0.476 OD490
OD 490 nm at 0.78125 nM antibody [7]: 0.5 OD490
OD 490 nm at 1.5625 nM antibody [7]: 0.607 OD490
OD 490 nm at 3.125 nM antibody [7]: 0.761 OD490
OD 490 nm at 6.25 nM antibody [7]: 1.04 OD490
OD 490 nm at 12.5 nM antibody [7]: 1.39 OD490
OD 490 nm at 25 nM antibody [7]: 1.78 OD490
OD 490 nm at 50 nM antibody [7]: 2.09 OD490

B4: 항 IL-6R 단클론 항체 D2 (IgG) (antibody, V domains shown)
VH: QVQLVESGAEVKKPGSSVKVSCKGSGDTFPNYAINWVRQAPGQGPEWMGRIIPMLGTSDYAEKFQGRVTITADKSTNTAYMGLNSLRSEDTAVYYCVKGPRYYGTDSYYLEKWGQGTMVTVSS
VL: SQLVLTQPPSVSGAPGQTVTISCTGPTIGAGYDVHWYQQLPGAAPKLLIYGNLNRPSGVPDRFSGSKSGTSASLAITDLQAEDEADYYCHTYDSSLSGSWVFGGGTKLTVL
notes: as for B3
Kd [5]: 7.5 nM
Kd [6]: 7.5 nM
OD 490 nm at 0.02441 nM antibody [7]: 0.449 OD490
OD 490 nm at 0.04883 nM antibody [7]: 0.451 OD490
OD 490 nm at 0.09766 nM antibody [7]: 0.45 OD490
OD 490 nm at 0.19531 nM antibody [7]: 0.469 OD490
OD 490 nm at 0.39063 nM antibody [7]: 0.473 OD490
OD 490 nm at 0.78125 nM antibody [7]: 0.479 OD490
OD 490 nm at 1.5625 nM antibody [7]: 0.584 OD490
OD 490 nm at 3.125 nM antibody [7]: 0.719 OD490
OD 490 nm at 6.25 nM antibody [7]: 0.981 OD490
OD 490 nm at 12.5 nM antibody [7]: 1.47 OD490
OD 490 nm at 25 nM antibody [7]: 1.94 OD490
OD 490 nm at 50 nM antibody [7]: 2.38 OD490

B5: 모노 파아지 클론 F2 (scFv on phage) (scFv)
chain: DVHSQVQLVESGAEVKKPGASVKVSCKASGYTFTNYYMHWVRQAPGQGLEWMGIINPSGGNTGYAQKFQGRVTMTRDMSTSTAYMELSSLRSEDTAVYYCARGLPWGENGLDVWGQGTTVTVSSDVHSQLVLTQPSSVSGAPGQTVTISCTGSSSNIGAGYDVHWYQQLPGTAPKVLIYGDSDRPSGVPDRFSGSKSATSASLAITGLQAEDEADYYCQSYDSSLSAYVFGTGTKVTVL
OD 490 nm (a-myc) [1]: 0.287 OD490
OD 490 nm (Fc) [2]: 0.0405 OD490
OD 490 nm (IL-6R full) [3]: 2.86 OD490
Ratio (IL-6R full / a-myc) [4]: 9.96

B6: 항 IL-6R 단클론 항체 A7 (IgG) (antibody, V domains shown)
VH: QMQLVESGGGLVQPGTSLRLSCAASGFKFEDYAMHWVRQAPGKGLEWVSGVSWNSGTIAYVDSVKGRFTISRDNAKNSLYLQMNSLRAEDTAVYYCARDFTYFYESSGYYAFDLWGQGTMVTVSS
VL: SQLVLTQPPSVSGAPGQRVTISCTGTNSNIGAGYDVHWYQQVPGTTPKLLIYGNTNRPSGVPDRFSGSKSGTSASLAITGLQAEDGGDYYCQSFDSSLTGSVFGTGTKVTVL
notes: as for B3
Kd [5]: 2.3 nM
Kd [6]: 2.3 nM
OD 490 nm at 0.02441 nM antibody [7]: 0.514 OD490
OD 490 nm at 0.04883 nM antibody [7]: 0.498 OD490
OD 490 nm at 0.09766 nM antibody [7]: 0.497 OD490
OD 490 nm at 0.19531 nM antibody [7]: 0.546 OD490
OD 490 nm at 0.39063 nM antibody [7]: 0.618 OD490
OD 490 nm at 0.78125 nM antibody [7]: 0.782 OD490
OD 490 nm at 1.5625 nM antibody [7]: 1.17 OD490
OD 490 nm at 3.125 nM antibody [7]: 1.64 OD490
OD 490 nm at 6.25 nM antibody [7]: 2.13 OD490
OD 490 nm at 12.5 nM antibody [7]: 2.58 OD490
OD 490 nm at 25 nM antibody [7]: 2.84 OD490
OD 490 nm at 50 nM antibody [7]: 3.1 OD490

B7: 모노 파아지 클론 B10 (scFv on phage) (scFv)
chain: DVHSQVQLVESGGGLVQPGGSLRLSCAASGFIFDDYAMFWVRQVPGKGLEWVAGINWNGNGIGYGDSVRGRFIISRDNARNSLDLQMNSLRAEDTAVYYCARPSLYGGNSEFDLWGQGTLVTVSSDVHSQLVLTQPPSVSGAPGQTVTISCTGPTIGAGYDVHWYQQLPGAAPKLLIYGNLNRPSGVPDRFSGSKSGTSASLAITDLQAEDEADYYCHTYDSSLSGSWVFGGGTKLTVL
OD 490 nm (a-myc) [1]: 0.113 OD490
OD 490 nm (Fc) [2]: 0.0406 OD490
OD 490 nm (IL-6R full) [3]: 2.1 OD490
Ratio (IL-6R full / a-myc) [4]: 18.6

B8: 항 IL-6R 단클론 항체 F2 (IgG) (antibody, V domains shown)
VH: QVQLVESGAEVKKPGASVKVSCKASGYTFTNYYMHWVRQAPGQGLEWMGIINPSGGNTGYAQKFQGRVTMTRDMSTSTAYMELSSLRSEDTAVYYCARGLPWGENGLDVWGQGTTVTVSS
VL: SQLVLTQPSSVSGAPGQTVTISCTGSSSNIGAGYDVHWYQQLPGTAPKVLIYGDSDRPSGVPDRFSGSKSATSASLAITGLQAEDEADYYCQSYDSSLSAYVFGTGTKVTVL
notes: as for B3
Kd [5]: 0.35 nM
Kd [6]: 0.35 nM
OD 490 nm at 0.02441 nM antibody [7]: 0.535 OD490
OD 490 nm at 0.04883 nM antibody [7]: 0.584 OD490
OD 490 nm at 0.09766 nM antibody [7]: 0.743 OD490
OD 490 nm at 0.19531 nM antibody [7]: 1.01 OD490
OD 490 nm at 0.39063 nM antibody [7]: 1.41 OD490
OD 490 nm at 0.78125 nM antibody [7]: 1.9 OD490
OD 490 nm at 1.5625 nM antibody [7]: 2.43 OD490
OD 490 nm at 3.125 nM antibody [7]: 2.72 OD490
OD 490 nm at 6.25 nM antibody [7]: 2.71 OD490
OD 490 nm at 12.5 nM antibody [7]: 2.92 OD490
OD 490 nm at 25 nM antibody [7]: 2.89 OD490
OD 490 nm at 50 nM antibody [7]: 2.99 OD490
